Assay results: the supplement of paper PMC7125110
± gives the standard error. Fewer inactive variants are shown than the library holds.

B1: glmS ribozyme (parent)
chain: AUAAAAGCGCCAGAACUACAGAAAUGUAGUUGACGAGGAGGAGGUUUAUCGAAUUUUCGGCGGAUGCCUCCAAA

What was measured:
Settings in all cases: with glucosamine-6-phosphate
glucosamine-6-phosphate [1] = variants of: B1; assay: self-cleavage kobs at 640 uM GlcN6P; higher = faster cleavage; RNA array
Method in brief: (§1)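 Barcoded glmS ribozyme variants on sequenced MiSeq chips were transcribed in situ by E. coli RNA polymerase and tracked through a hybridised Cy3 probe at 37 °C. Glucosamine-6-phosphate (40 μM to 10 mM) in HEPES/KCl/Mg(OAc)2 buffer was flowed in, and tiles were imaged over ~14 h. Signals were normalised to baseline and to non-cleaving reference variants; per-tile medians were fit to one- or two-exponential decays to give kobs. kcat and KM came from weighted Michaelis–Menten fits across concentrations.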

glucosamine-6-phosphate [2] = variants of: B1; assay: self-cleavage kobs at 2500 uM GlcN6P; higher = faster cleavage; RNA array
Method in brief: as §1

glucosamine-6-phosphate [3] = variants of: B1; assay: self-cleavage kobs at 10000 uM GlcN6P; higher = faster cleavage; RNA array
Method in brief: as §1

Row | Variant | self-cleavage kobs at 640 uM GlcN6P (glucosamine-6-phosphate [1]) | self-cleavage kobs at 2500 uM GlcN6P (glucosamine-6-phosphate [2]) | self-cleavage kobs at 10000 uM GlcN6P (glucosamine-6-phosphate [3])
1 | C34U A36G G62A U69G | 0.00111 ± 0.00031 s⁻¹ | 0.000939 ± 0.00035 s⁻¹ | 
2 | A36G A42G U56G | < 1e-05 s⁻¹ |  | 
3 | G35C A39C A52U G60C G63U | < 1e-05 s⁻¹ | < 1e-05 s⁻¹ | 
4 | A39U A52C A53G A64U | < 1e-05 s⁻¹ | < 1e-05 s⁻¹ | 
5 | G35U G63U U65A | < 1e-05 s⁻¹ | < 1e-05 s⁻¹ | 
6 | U31G C50A U56G U69G | 0.000115 ± 3.6e-05 s⁻¹ | 7.11e-05 ± 1.8e-05 s⁻¹ | 
7 | G32A G37C A42C | < 1e-05 s⁻¹ |  | 
8 | G35A A53C G63C | < 1e-05 s⁻¹ | < 1e-05 s⁻¹ | 
9 | U31A A33U U55A C58G | < 1e-05 s⁻¹ | < 1e-05 s⁻¹ | 
10 | A33U A52G C68G C71G | 0.000207 ± 7.3e-05 s⁻¹ | 9.93e-05 ± 4e-05 s⁻¹ | 
11 | G32A G44U C67U | 0.000148 ± 2.8e-05 s⁻¹ | 0.000244 ± 5.3e-05 s⁻¹ | 
12 | A36C G41U A53G | < 1e-05 s⁻¹ |  | 
13 | C34G C58U C68G | 9.4e-05 ± 2.9e-05 s⁻¹ |  | 
14 | G35A A39U G51C | < 1e-05 s⁻¹ | < 1e-05 s⁻¹ | 
15 | G32A G35C A39G | < 1e-05 s⁻¹ | < 1e-05 s⁻¹ | 
16 | U31G U65A | 0.000295 ± 0.00011 s⁻¹ |  | 0.00166 ± 0.00049 s⁻¹
17 | G35A G37A U57A C68A | 0.000784 ± 0.00036 s⁻¹ |  | 
18 | C34A G35A U65G | < 1e-05 s⁻¹ |  | 
19 | A36G A39C A64U C71G | < 1e-05 s⁻¹ | < 1e-05 s⁻¹ | 
20 | C34U C50G U54A | 0.000235 ± 6.6e-05 s⁻¹ | 0.000344 ± 0.0001 s⁻¹ | 
21 | A39U A52G U54G U57C | 3.84e-05 ± 1.7e-05 s⁻¹ | 0.00016 ± 4.9e-05 s⁻¹ | 
22 | C34G G43C A52G | < 1e-05 s⁻¹ | < 1e-05 s⁻¹ | 

Row | Variant | self-cleavage kobs at 640 uM GlcN6P (glucosamine-6-phosphate [1]) | self-cleavage kobs at 2500 uM GlcN6P (glucosamine-6-phosphate [2]) | self-cleavage kobs at 10000 uM GlcN6P (glucosamine-6-phosphate [3])
23 | G35U A39U G62A | < 1e-05 s⁻¹ | < 1e-05 s⁻¹ | 
24 | A33U C34U C71G | < 1e-05 s⁻¹ |  | 
25 | G35A G43C A53U U54A | < 1e-05 s⁻¹ | < 1e-05 s⁻¹ | 
26 | U30G G40C A53G G62C | < 1e-05 s⁻¹ |  | 
27 | A39G U45G C71U | 0.00169 ± 0.0004 s⁻¹ | 0.0041 ± 0.0017 s⁻¹ | 
28 | G40C A48G U56G G59U A64C C70G | < 1e-05 s⁻¹ |  | 
29 | G38C U57G | < 1e-05 s⁻¹ |  | 
30 | C34U A42G C58U A64G U65G | < 1e-05 s⁻¹ | < 1e-05 s⁻¹ | 
31 | G35A G40U G43U G59A C67G | < 1e-05 s⁻¹ | < 1e-05 s⁻¹ | 
32 | G38A A42C A64G | < 1e-05 s⁻¹ | < 1e-05 s⁻¹ | 
33 | G35C G51U A64C | < 1e-05 s⁻¹ | < 1e-05 s⁻¹ | 
34 | G38U C50U C58A U69A | 0.000295 ± 9.9e-05 s⁻¹ | 0.000466 ± 0.00018 s⁻¹ | 
35 | A33C G35A G44U C70U | < 1e-05 s⁻¹ |  | 
36 | U30G G32A G38C U57C U65C | < 1e-05 s⁻¹ | < 1e-05 s⁻¹ | 
37 | G40A G43U C50A | < 1e-05 s⁻¹ |  | 
38 | C34U G41C A52U G60C U69G | < 1e-05 s⁻¹ |  | < 1e-05 s⁻¹
39 | A36G G37U A42C G44U | < 1e-05 s⁻¹ |  | < 1e-05 s⁻¹
40 | U30G A52C C71G | < 1e-05 s⁻¹ |  | 
41 | C34G C61U C70G | < 1e-05 s⁻¹ | < 1e-05 s⁻¹ | 
42 | A33G A48C C61A C67G | < 1e-05 s⁻¹ |  | < 1e-05 s⁻¹
43 | G32U C34G U69G | 8.49e-05 ± 2.2e-05 s⁻¹ |  | 
44 | A33U A39C A48U G59U | < 1e-05 s⁻¹ |  | 

Row | Variant | self-cleavage kobs at 640 uM GlcN6P (glucosamine-6-phosphate [1]) | self-cleavage kobs at 2500 uM GlcN6P (glucosamine-6-phosphate [2]) | self-cleavage kobs at 10000 uM GlcN6P (glucosamine-6-phosphate [3])
45 | A39U C50G A52U G59U C67G | < 1e-05 s⁻¹ |  | < 1e-05 s⁻¹
46 | A33C G38C U55C C61G C71U | < 1e-05 s⁻¹ | < 1e-05 s⁻¹ | 
47 | G32C A53C G62C | < 1e-05 s⁻¹ | < 1e-05 s⁻¹ | 
48 | G32A G37U A48C G66C | < 1e-05 s⁻¹ |  | 
49 | A36C C67A | < 1e-05 s⁻¹ |  | 
50 | G37A A42U G44C G59A | < 1e-05 s⁻¹ | < 1e-05 s⁻¹ | 
51 | A36U A52G G62C C71A | < 1e-05 s⁻¹ |  | 
52 | G38U C50G G62U | 0.000714 ± 0.00023 s⁻¹ | 6.98e-05 ± 2e-05 s⁻¹ | 
53 | G35U C67G C68G | 6.14e-05 ± 2.2e-05 s⁻¹ |  | 
54 | G35A A39C U47C U56G | < 1e-05 s⁻¹ |  | 
55 | G32C U56A | 3.99e-05 ± 1.8e-05 s⁻¹ | 2.05e-05 ± 9.8e-06 s⁻¹ | 5.18e-05 ± 7.3e-06 s⁻¹
56 | U31G C70A | 0.000129 ± 2.6e-05 s⁻¹ | 9.72e-05 ± 2.7e-05 s⁻¹ | 0.000372 ± 0.00014 s⁻¹
57 | U31C G38A C71U | < 1e-05 s⁻¹ |  | 
58 | U31C A42C A64G C67G | < 1e-05 s⁻¹ |  | 
59 | G38U U46A G59A C70A | < 1e-05 s⁻¹ | < 1e-05 s⁻¹ | 
60 | A33G C34U A42G G51U C58U G59C | < 1e-05 s⁻¹ | < 1e-05 s⁻¹ | 
61 | G37C G60U U69A | < 1e-05 s⁻¹ | < 1e-05 s⁻¹ | 
62 | G35U C61G | < 1e-05 s⁻¹ |  | < 1e-05 s⁻¹
63 | G35C A42C C50U G51U | < 1e-05 s⁻¹ |  | 
64 | G37C G40A C50G | < 1e-05 s⁻¹ | < 1e-05 s⁻¹ | 
